In the supplement of paper PMC5998384:

Tests used:
HeLa Kyoto [1] = assay: melting temperature (median over replicates), in situ; higher = more thermally stable
HeLa Kyoto [2] = assay: solubility change mitosis vs G1/S (difference of NP-40 vs SDS log2 ratios) (log2 ratio difference); higher = more soluble in mitosis
HeLa Kyoto [3] = assay: thermal stability score vs G1/S (z-score of summed log2 fold changes over temperatures); higher = more thermally stable than in G1/S
HeLa Kyoto [4] = assay: solubility in G1/S (NP-40 vs SDS abundance) (log2 ratio); higher = more soluble; conditions: cell cycle stage: G1/S
[5] = cell cycle stage: early G1 (4.5 h after nocodazole release)
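For melting temperature (median over replicates), in situ in this document: HeLa Kyoto cells synchronized by double thymidine or nocodazole block, proteins quantified by TMT10plex mass spectrometry, three independent biological replicates.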
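For solubility change mitosis vs G1/S (difference of NP-40 vs SDS log2 ratios) in this document: synchronized HeLa Kyoto cells (double thymidine block for G1/S, nocodazole release for mitosis), protein amounts in NP-40 versus SDS lysates quantified by mass spectrometry, three biological replicates.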
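For solubility in G1/S (NP-40 vs SDS abundance) in this document: HeLa Kyoto cells arrested at G1/S by double thymidine block, proteins quantified by TMT10plex mass spectrometry in mild NP-40 versus SDS extracts, three biological replicates.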
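For thermal stability score vs G1/S (z-score of summed log2 fold changes over temperatures) in this document: synchronized HeLa Kyoto cells, proteins quantified by TMT10plex mass spectrometry, three biological replicates, mitosis taken 0.5 h after nocodazole release, G1/S directly after double thymidine block.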

Sequence of PNO1 (chain, as listed by the source): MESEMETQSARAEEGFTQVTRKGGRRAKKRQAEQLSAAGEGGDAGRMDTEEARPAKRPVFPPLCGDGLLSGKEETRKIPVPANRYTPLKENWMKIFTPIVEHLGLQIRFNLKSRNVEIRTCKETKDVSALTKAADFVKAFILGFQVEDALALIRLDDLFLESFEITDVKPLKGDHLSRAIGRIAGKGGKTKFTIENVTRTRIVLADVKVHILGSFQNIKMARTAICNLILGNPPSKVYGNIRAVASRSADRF

Substance	melting temperature (HeLa Kyoto [1]; cell cycle stage: G1/S)	melting temperature (HeLa Kyoto [1]; cell cycle stage: mitosis)	solubility change mitosis (log2) (HeLa Kyoto [2])	thermal stability score (HeLa Kyoto [3]; [5])	thermal stability score (HeLa Kyoto [3]; cell cycle stage: mitosis)	solubility in G1/S (log2) (HeLa Kyoto [4])
MSDKSELKAELERKKQRLAQIREEKKRKEEERKKKETDQKKEAVAPVQEESDLEKKRREAEALLQSMGLTPESPIVFSEYWVPPPMSPSSKSVSTPSEAGSQDSGDGAVGSRTLHWDTDPSVLQLHSDSDLGRGPIKLGMAKITQVDFPPREIVTYTKETQTPVMAQPKEDEEEDDDVVAPKPPIEPEEEKTLKKDEENDSKAPPHELTEEEKQQILHSEEFLSFFDHSTRIVERALSEQINIFFDYSGRDLEDKEGEIQAGAKLSLNRQFFDERWSKHRVVSCLDWSSQYPELLVASYNNNEDAPHEPDGVALVWNMKYKKTTPEYVFHCQSAVMSATFAKFHPNLVVGGTYSGQIVLWDNRSNKRTPVQRTPLSAAAHTHPVYCVNVVGTQNAHNLISISTDGKICSWSLDMLSHPQDSMELVHKQSKAVAVTSMSFPVGDVNNFVVGSEEGSVYTACRHGSKAGISEMFEGHQGPITGIHCHAAVGAVDFSHLFVTSSFDWTVKLWTTKNNKPLYSFEDNADYVYDVMWSPTHPALFACVDGMGRLDLWNLNNDTEVPTASISVEGNPALNRVRWTHSGREIAVGDSEGQIVIYDVGEQIAVPRNDEWARFGRTLAEINANRADAEEEAATRIPA [DYNC1I2]	53.2 °C	52.3 °C	-0.0123	-2.66	-3.05	-0.0277
SRGAP2	50 °C	50.5 °C	0.0509	0.993	0.737	0.0333
MASYPSGSGKPKAKYPFKKRASLQASTAAPEARGGLGAPPLQSARSLPGPAPCLKHFPLDLRTSMDGKCKEIAEELFTRSLAESELRSAPYEFPEESPIEQLEERRQRLERQISQDVKLEPDILLRAKQDFLKTDSDSDLQLYKEQGEGQGDRSLRERDVLEREFQRVTISGEEKCGVPFTDLLDAAKSVVRALFIREKYMALSLQSFCPTTRRYLQQLAEKPLETRTYEQGPDTPVSADAPVHPPALEQHPYEHCEPSTMPGDLGLGLRMVRGVVHVYTRREPDEHCSEVELPYPDLQEFVADVNVLMALIINGPIKSFCYRRLQYLSSKFQMHVLLNEMKELAAQKKVPHRDFYNIRKVDTHIHASSCMNQKHLLRFIKRAMKRHLEEIVHVEQGREQTLREVFESMNLTAYDLSVDTLDVHADRNTFHRFDKFNAKYNPIGESVLREIFIKTDNRVSGKYFAHIIKEVMSDLEESKYQNAELRLSIYGRSRDEWDKLARWAVMHRVHSPNVRWLVQVPRLFDVYRTKGQLANFQEMLENIFLPLFEATVHPASHPELHLFLEHVDGFDSVDDESKPENHVFNLESPLPEAWVEEDNPPYAYYLYYTFANMAMLNHLRRQRGFHTFVLRPHCGEAGPIHHLVSAFMLAENISHGLLLRKAPVLQYLYYLAQIGIAMSPLSNNSLFLSYHRNPLPEYLSRGLMVSLSTDDPLQFHFTKEPLMEEYSIATQVWKLSSCDMCELARNSVLMSGFSHKVKSHWLGPNYTKEGPEGNDIRRTNVPDIRVGYRYETLCQELALITQAVQSEMLETIPEEAGITMSPGPQ [AMPD2]	56.2 °C	55 °C	-0.181	-0.578	-2.37	0.0591
MKMADAKQKRNEQLKRWIGSETDLEPPVVKRQKTKVKFDDGAVFLAACSSGDTDEVLKLLHRGADINYANVDGLTALHQACIDDNVDMVKFLVENGANINQPDNEGWIPLHAAASCGYLDIAEFLIGQGAHVGAVNSEGDTPLDIAEEEAMEELLQNEVNRQGVDIEAARKEEERIMLRDARQWLNSGHINDVRHAKSGGTALHVAAAKGYTEVLKLLIQAGYDVNIKDYDGWTPLHAAAHWGKEEACRILVDNLCDMEMVNKVGQTAFDVADEDILGYLEELQKKQNLLHSEKRDKKSPLIESTANMDNNQSQKTFKNKETLIIEPEKNASRIESLEQEKVDEEEEGKKDESSCSSEEDEEDDSESEAETDKTKPLASVTNANTSSTQAAPVAVTTPTVSSGQATPTSPIKKFPTTATKISPKEEERKDESPATWRLGLRKTGSYGALAEITASKEGQKEKDTAGVTRSASSPRLSSSLDNKEKEKDSKGTRLAYVAPTIPRRLASTSDIEEKENRDSSSLRTSSSYTRRKWEDDLKKNSSVNEGSTYHKSCSFGRRQDDLISSSVPSTTSTPTVTSAAGLQKSLLSSTSTTTKITTGSSSAGTQSSTSNRLWAEDSTEKEKDSVPTAVTIPVAPTVVNAAASTTTLTTTTAGTVSSTTEVRERRRSYLTPVRDEESESQRKARSRQARQSRRSTQGVTLTDLQEAEKTIGRSRSTRTREQENEEKEKEEKEKQDKEKQEEKKESETSREDEYKQKYSRTYDETYQRYRPVSTSSSTTPSSSLSTMSSSLYASSQLNRPNSLVGITSAYSRGITKENEREGEKREEEKEGEDKSQPKSIRERRRPREKRRSTGVSFWTQDSDENEQEQQSDTEEGSNKKETQTDSISRYETSSTSAGDRYDSLLGRSGSYSYLEERKPYSSRLEKDDSTDFKKLYEQILAENEKLKAQLHDTNMELTDLKLQLEKATQRQERFADRSLLEMEKRERRALERRISEMEEELKMLPDLKADNQRLKDENGALIRVISKLSK [PPP1R12A]	50.4 °C	50.2 °C	0.0601	-1.62	-0.382	-0.42
MTSSRLWFSLLLAAAFAGRATALWPWPQNFQTSDQRYVLYPNNFQFQYDVSSAAQPGCSVLDEAFQRYRDLLFGSGSWPRPYLTGKRHTLEKNVLVVSVVTPGCNQLPTLESVENYTLTINDDQCLLLSETVWGALRGLETFSQLVWKSAEGTFFINKTEIEDFPRFPHRGLLLDTSRHYLPLSSILDTLDVMAYNKLNVFHWHLVDDPSFPYESFTFPELMRKGSYNPVTHIYTAQDVKEVIEYARLRGIRVLAEFDTPGHTLSWGPGIPGLLTPCYSGSEPSGTFGPVNPSLNNTYEFMSTFFLEVSSVFPDFYLHLGGDEVDFTCWKSNPEIQDFMRKKGFGEDFKQLESFYIQTLLDIVSSYGKGYVVWQEVFDNKVKIQPDTIIQVWREDIPVNYMKELELVTKAGFRALLSAPWYLNRISYGPDWKDFYIVEPLAFEGTPEQKALVIGGEACMWGEYVDNTNLVPRLWPRAGAVAERLWSNKLTSDLTFAYERLSHFRCELLRRGVQAQPLNVGFCEQEFEQT [HEXA]	56.7 °C	56.1 °C	-0.164	0.922	0.624	0.295
MADLLGSILSSMEKPPSLGDQETRRKAREQAARLKKLQEQEKQQKVEFRKRMEKEVSDFIQDSGQIKKKFQPMNKIERSILHDVVEVAGLTSFSFGEDDDCRYVMIFKKEFAPSDEELDSYRRGEEWDPQKAEEKRKLKELAQRQEEEAAQQGPVVVSPASDYKDKYSHLIGKGAAKDAAHMLQANKTYGCVPVANKRDTRSIEEAMNEIRAKKRLRQSGEELPPTS [SPAG7]	53.1 °C	55 °C	-0.0144	-1.04	-1.5	0.68
MRLLPLAPGRLRRGSPRHLPSCSPALLLLVLGGCLGVFGVAAGTRRPNVVLLLTDDQDEVLGGMTPLKKTKALIGEMGMTFSSAYVPSALCCPSRASILTGKYPHNHHVVNNTLEGNCSSKSWQKIQEPNTFPAILRSMCGYQTFFAGKYLNEYGAPDAGGLEHVPLGWSYWYALEKNSKYYNYTLSINGKARKHGENYSVDYLTDVLANVSLDFLDYKSNFEPFFMMIATPAPHSPWTAAPQYQKAFQNVFAPRNKNFNIHGTNKHWLIRQAKTPMTNSSIQFLDNAFRKRWQTLLSVDDLVEKLVKRLEFTGELNNTYIFYTSDNGYHTGQFSLPIDKRQLYEFDIKVPLLVRGPGIKPNQTSKMLVANIDLGPTILDIAGYDLNKTQMDGMSLLPILRGASNLTWRSDVLVEYQGEGRNVTDPTCPSLSPGVSQCFPDCVCEDAYNNTYACVRTMSALWNLQYCEFDDQEVFVEVYNLTADPDQITNIAKTIDPELLGKMNYRLMMLQSCSGPTCRTPGVFDPGYRFDPRLMFSNRGSVRTRRFSKHLL [GNS]	57.1 °C	57.6 °C	0.0867	-1.62	-1.58	0.471
MTHEEHHAAKTLGIGKAIAVLTSGGDAQGMNAAVRAVVRVGIFTGARVFFVHEGYQGLVDGGDHIKEATWESVSMMLQLGGTVIGSARCKDFREREGRLRAAYNLVKRGITNLCVIGGDGSLTGADTFRSEWSDLLSDLQKAGKITDEEATKSSYLNIVGLVGSIDNDFCGTDMTIGTDSALHRIMEIVDAITTTAQSHQRTFVLEVMGRHCGYLALVTSLSCGADWVFIPECPPDDDWEEHLCRRLSETRTRGSRLNIIIVAEGAIDKNGKPITSEDIKNLVVKRLGYDTRVTVLGHVQRGGTPSAFDRILGSRMGVEAVMALLEGTPDTPACVVSLSGNQAVRLPLMECVQVTKDVTKAMDEKKFDEALKLRGRSFMNNWEVYKLLAHVRPPVSKSGSHTVAVMNVGAPAAGMNAAVRSTVRIGLIQGNRVLVVHDGFEGLAKGQIEEAGWSYVGGWTGQGGSKLGTKRTLPKKSFEQISANITKFNIQGLVIIGGFEAYTGGLELMEGRKQFDELCIPFVVIPATVSNNVPGSDFSVGADTALNTICTTCDRIKQSAAGTKRRVFIIETMGGYCGYLATMAGLAAGADAAYIFEEPFTIRDLQANVEHLVQKMKTTVKRGLVLRNEKCNENYTTDFIFNLYSEEGKGIFDSRKNVLGHMQQGGSPTPFDRNFATKMGAKAMNWMSGKIKESYRNGRIFANTPDSGCVLGMRKRALVFQPVAELKDQTDFEHRIPKEQWWLKLRPILKILAKYEIDLDTSDHAHLEHITRKRSGEAAV [PFKM]	59.6 °C	59.7 °C	-0.181	-1.59	-1.13	0.0079
MSVGFIGAGQLAYALARGFTAAGILSAHKIIASSPEMNLPTVSALRKMGVNLTRSNKETVKHSDVLFLAVKPHIIPFILDEIGADVQARHIVVSCAAGVTISSVEKKLMAFQPAPKVIRCMTNTPVVVQEGATVYATGTHALVEDGQLLEQLMSSVGFCTEVEEDLIDAVTGLSGSGPAYAFMALDALADGGVKMGLPRRLAIQLGAQALLGAAKMLLDSEQHPCQLKDNVCSPGGATIHALHFLESGGFRSLLINAVEASCIRTRELQSMADQEKISPAALKKTLLDRVKLESPTVSTLTPSSPGKLLTRSLALGGKKD [PYCR2]	54.9 °C	54.5 °C	-0.0672	1.32	-3.51	0.291
MSTAREQPIFSTRAHVFQIDPATKRNWIPAGKHALTVSYFYDATRNVYRIISIGGAKAIINSTVTPNMTFTKTSQKFGQWADSRANTVYGLGFASEQHLTQFAEKFQEVKEAARLAREKSQDGGELTSPALGLASHQVPPSPLVSANGPGEEKLFRSQSADAPGPTERERLKKMLSEGSVGEVQWEAEFFALQDSNNKLAGALREANAAAAQWRQQLEAQRAEAERLRQRVAELEAQAASEVTPTGEKEGLGQGQSLEQLEALVQTKDQEIQTLKSQTGGPREALEAAEREETQQKVQDLETRNAELEHQLRAMERSLEEARAERERARAEVGRAAQLLDVSLFELSELREGLARLAEAAP [HOMER3]	48.7 °C	51.7 °C	0.0389	-1.1	-1.09	0.263
MSDEEARQSGGSSQAGVVTVSDVQELMRRKEEIEAQIKANYDVLESQKGIGMNEPLVDCEGYPRSDVDLYQVRTARHNIICLQNDHKAVMKQVEEALHQLHARDKEKQARDMAEAHKEAMSRKLGQSESQGPPRAFAKVNSISPGSPASIAGLQVDDEIVEFGSVNTQNFQSLHNIGSVVQHSEGKPLNVTVIRRGEKHQLRLVPTRWAGKGLLGCNIIPLQR [PSMD9]	55.8 °C	55.7 °C	0.112	-2.77	-3.23	0.431
PNO1	50.3 °C	50 °C	0.449	0.178	0.628	-0.779
